According to paper PMC10397247:
Each block holds one binder with its values, some of them ahead of it.

Columns and labels:
[1] = target: T1, APC542-AA; test: two-hybrid library CCmax; settings: mean of both orientations;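 also: natural log of median RNA to DNA barcode read ratio; higher means stronger binding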
T1 chain: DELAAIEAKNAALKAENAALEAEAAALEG

[2] = target: T2, APC2543-AA; test: two-hybrid library CCmax; settings: mean of both orientations;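 also: natural log of median RNA to DNA barcode read ratio; higher means stronger binding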
T2 chain: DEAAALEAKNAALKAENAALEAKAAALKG

[3] = target: T3, APC3323-AA; test: two-hybrid library CCmax; settings: mean of both orientations;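 also: natural log of median RNA to DNA barcode read ratio; higher means stronger binding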
T3 chain: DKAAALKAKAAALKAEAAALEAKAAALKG

[4] = target: T4, APC2474-AA; test: two-hybrid library CCmax; settings: mean of both orientations;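 also: natural log of median RNA to DNA barcode read ratio; higher means stronger binding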
T4 chain: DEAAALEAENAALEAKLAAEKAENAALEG

[5] = target: T5, APC2811-AA; test: two-hybrid library CCmax; settings: mean of both orientations;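 also: natural log of median RNA to DNA barcode read ratio; higher means stronger binding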
T5 chain: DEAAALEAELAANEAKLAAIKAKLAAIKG

[6] = target: T6, APC7524-AA; test: two-hybrid library CCmax; settings: mean of both orientations;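 also: natural log of median RNA to DNA barcode read ratio; higher means stronger binding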
T6 chain: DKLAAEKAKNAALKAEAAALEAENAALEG

[7] = target: T7, APC9291-AA; test: two-hybrid library CCmax; settings: mean of both orientations
T7 chain: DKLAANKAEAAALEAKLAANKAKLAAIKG

[8] = target: T8, APC9141-AA; test: two-hybrid library CCmax; settings: mean of both orientations
T8 chain: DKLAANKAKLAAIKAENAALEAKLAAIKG

[9] = target: T9, APC3265-AA; test: two-hybrid library CCmax; settings: mean of both orientations
T9 chain: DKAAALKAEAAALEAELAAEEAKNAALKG

[10] = target: T10, APC6088-AA; test: two-hybrid library CCmax; settings: mean of both orientations
T10 chain: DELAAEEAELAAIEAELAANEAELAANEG

[11] = target: T11, APC2981-AA; test: two-hybrid library CCmax; settings: mean of both orientations
T11 chain: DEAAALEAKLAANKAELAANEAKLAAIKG

[12] = target: T12, APC4336-AA; test: two-hybrid library CCmax; settings: mean of both orientations
T12 chain: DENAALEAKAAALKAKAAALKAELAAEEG

[13] = target: T13, APC4100-AA; test: two-hybrid library CCmax; settings: mean of both orientations
T13 chain: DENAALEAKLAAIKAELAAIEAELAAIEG

[14] = target: T14, APC8401-AA; test: two-hybrid library CCmax; settings: mean of both orientations
T14 chain: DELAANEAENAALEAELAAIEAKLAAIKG

[15] = target: T15, APC8516-AA; test: two-hybrid library CCmax; settings: mean of both orientations
T15 chain: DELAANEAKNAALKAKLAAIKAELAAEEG

[16] = target: T16, APC5009-AA; test: two-hybrid library CCmax; settings: mean of both orientations
T16 chain: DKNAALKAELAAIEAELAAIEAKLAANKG

[17] = target: T17, APC9182-AA; test: two-hybrid library CCmax; settings: mean of both orientations
T17 chain: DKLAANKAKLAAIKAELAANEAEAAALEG

[18] = target: T18, APC5531-AA; test: two-hybrid library CCmax; settings: mean of both orientations
T18 chain: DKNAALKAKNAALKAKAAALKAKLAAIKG

[19] = target: T19, APC3354-AA; test: two-hybrid library CCmax; settings: mean of both orientations
T19 chain: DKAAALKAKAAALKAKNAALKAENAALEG

[20] = target: T20, APC2724-AA; test: two-hybrid library CCmax; settings: mean of both orientations
T20 chain: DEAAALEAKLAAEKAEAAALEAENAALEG

[21] = target: T21, APC3881-AA; test: two-hybrid library CCmax; settings: mean of both orientations
T21 chain: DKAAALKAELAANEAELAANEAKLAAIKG

[22] = target: T22, APC9806-AA; test: two-hybrid library CCmax; settings: mean of both orientations
T22 chain: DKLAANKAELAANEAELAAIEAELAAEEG

[23] = target: T23, APC2375-AA; test: two-hybrid library CCmax
T23 chain: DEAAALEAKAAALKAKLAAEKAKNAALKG

[24] = target: T24, APC2556-AA; test: two-hybrid library CCmax; settings: mean of both orientations
T24 chain: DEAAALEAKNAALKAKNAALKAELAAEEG

[25] = target: T25, 4H491-bH; test: two-hybrid library CCNG1
T25 chain: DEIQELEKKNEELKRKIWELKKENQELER

[26] = target: T26, 4H3632-bH; test: two-hybrid library CCNG1
T26 chain: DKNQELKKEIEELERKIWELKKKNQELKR

[27] = target: T27, 4H48-bH; test: two-hybrid library CCNG1
T27 chain: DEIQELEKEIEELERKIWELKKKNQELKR

[28] = target: T28, 4H342-bH; test: two-hybrid library CCNG1
T28 chain: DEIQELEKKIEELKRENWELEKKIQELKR

[29] = target: T29, 4H496-bH; test: two-hybrid library CCNG1
T29 chain: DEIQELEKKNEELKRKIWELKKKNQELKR

[30] = target: T30, 4H331-bA; test: two-hybrid library CCNG1
T30 chain: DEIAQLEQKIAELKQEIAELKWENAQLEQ

[31] = target: T31, 4H462-bA; test: two-hybrid library CCNG1
T31 chain: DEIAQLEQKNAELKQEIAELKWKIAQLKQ

[32] = target: T32, 4H370-bA; test: two-hybrid library CCNG1
T32 chain: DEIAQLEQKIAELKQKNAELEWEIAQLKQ

[33] = target: T33, 4H568-bA; test: two-hybrid library CCNG1
T33 chain: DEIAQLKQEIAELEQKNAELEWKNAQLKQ

[34] = target: T34, 4H3606-bA; test: two-hybrid library CCNG1
T34 chain: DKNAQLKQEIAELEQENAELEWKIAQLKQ

[35] = target: T35, 4H953-bA; test: two-hybrid library CCNG1
T35 chain: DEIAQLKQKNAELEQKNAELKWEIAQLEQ

[36] = target: T36, 4H2697-bA; test: two-hybrid library CCNG1
T36 chain: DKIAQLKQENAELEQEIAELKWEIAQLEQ

[37] = target: T37, 4H2610-bA; test: two-hybrid library CCNG1
T37 chain: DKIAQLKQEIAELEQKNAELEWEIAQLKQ

[38] = target: T38, 4H2667-bA; test: two-hybrid library CCNG1
T38 chain: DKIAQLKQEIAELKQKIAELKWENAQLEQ

[39] = target: T39, 4H797-bA; test: two-hybrid library CCNG1
T39 chain: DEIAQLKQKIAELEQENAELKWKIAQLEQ

[40] = target: T40, 4H967-bA; test: two-hybrid library CCNG1
T40 chain: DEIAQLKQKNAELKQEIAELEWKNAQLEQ

[41] = target: T41, 4H4001-bA; test: two-hybrid library CCNG1
T41 chain: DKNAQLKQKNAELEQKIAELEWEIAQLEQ

[42] = target: T42, 4H883-bA; test: two-hybrid library CCNG1
T42 chain: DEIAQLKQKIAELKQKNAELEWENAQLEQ

[43] = target: T43, 4H3189-bA; test: two-hybrid library CCNG1
T43 chain: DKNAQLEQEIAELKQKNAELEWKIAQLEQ

[44] = target: T44, 4H918-bA; test: two-hybrid library CCNG1
T44 chain: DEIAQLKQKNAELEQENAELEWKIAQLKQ

[45] = target: T45, 4H607-bA; test: two-hybrid library CCNG1
T45 chain: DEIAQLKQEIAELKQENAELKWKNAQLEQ

[46] = target: T46, 4H72-bA; test: two-hybrid library CCNG1
T46 chain: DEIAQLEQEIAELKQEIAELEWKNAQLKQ

[47] = target: T47, 4H687-bA; test: two-hybrid library CCNG1
T47 chain: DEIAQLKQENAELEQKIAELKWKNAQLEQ

[48] = target: T48, 4H3843-bA; test: two-hybrid library CCNG1
T48 chain: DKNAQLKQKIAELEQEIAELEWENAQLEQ

[49] = target: T49, 4H3782-bA; test: two-hybrid library CCNG1
T49 chain: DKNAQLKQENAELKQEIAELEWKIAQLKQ

[50] = target: T50, Q8-AA; test: two-hybrid library CCmax; settings: mean of both orientations
T50 chain: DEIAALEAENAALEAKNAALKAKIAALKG

[51] = target: T51, Q7-AA; test: two-hybrid library CCmax; settings: mean of both orientations
T51 chain: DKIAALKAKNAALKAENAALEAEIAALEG

Binder: DEAAALEAKAAALKAKLAAEKAKNAALKG [APC2375-AA]
interaction score [1]: -1.83 | interaction score [2]: -1.57 | interaction score [3]: -1.82 | interaction score [4]: -1.59 | interaction score [5]: -1.74 | interaction score [6]: -1.49 | interaction score [7]: -1.88 | interaction score [8]: -1.6 | interaction score [9]: -1.44 | interaction score [10]: -1.06 | interaction score [11]: -1.45 | interaction score [12]: -1.65 | interaction score [13]: -1.47 | interaction score [14]: -0.731 | interaction score [15]: -1.58 | interaction score [16]: -0.913 | interaction score [17]: -1.83 | interaction score [18]: -1.77 | interaction score [19]: -1.67 | interaction score [20]: -1.62 | interaction score [21]: -1.74 | interaction score [22]: -1.72 | interaction score [23]: -1.68 | interaction score [24]: -1.42

Binder: DEIQELEKKIEELKRENWELEKKIQELKR [4H342-bH]
interaction score [25]: 1.47 | interaction score [26]: 1.55 | interaction score [27]: -0.0388 | interaction score [28]: 1.38 | interaction score [29]: 0.0247

Continued, values first:

interaction score [30]: -0.211 | interaction score [31]: 1.76 | interaction score [32]: -1.17 | interaction score [33]: -0.602 | interaction score [34]: 0.322 | interaction score [35]: 0.322 | interaction score [36]: 0.713 | interaction score [37]: -0.2 | interaction score [38]: 0.718 | interaction score [39]: -0.486 | interaction score [40]: -1.02 | interaction score [41]: 0.0746 | interaction score [42]: 0.538 | interaction score [43]: -0.366 | interaction score [44]: 1.13 | interaction score [45]: -1.15 | interaction score [46]: -0.563 | interaction score [47]: -0.571 | interaction score [48]: 0.444 | interaction score [49]: -0.515
Binder: DKIAQLKQEIAELEQKNAELEWEIAQLKQ [4H2610-bA]

interaction score [50]: -1.09 | interaction score [51]: -1.36
Binder: DEIAALEAEIAALEAENAALEAENAALEG [Q3-AA]
